T1: Fba peptide (Candida albicans)
T1 construct: Synthetic 14-mer (GenScript) from the N-terminus of C. albicans fructose-bisphosphate aldolase
T1 peptide: YGKDVKDLFDYAQEC

T2: Met6 peptide (Candida albicans)
T2 construct: Synthetic 14-mer (GenScript) from the N-terminus of the C. albicans Met6 cell wall protein
T2 peptide: PRIGGQRELKKITEC

B1: 2D5F7 (antibody, V domains shown)
VH: QVQLQQSAAELARPGASVKMSCKASGYTFSSYTMHWVKQRPGQGLEWIGYINPSSGYTDYNQKFKDKTTLTADKSSSTAYMQLSSLTSEDSAVYYCARLYDNYDYYAMDYWGQGTSVTVSS
VL: DIVMSQSPSSLAVSAGEKVTMSCKSSQSLLNSRIRKNYLAWYQQKPGQSPKLLIYWASTRESGVPDRFTGSGSGTDFTLTISSVQADDLAVYYCKQSYNLLTFGAGTKLELK
notes: Mouse hybridoma mAb, IgG2b; The entries are 140 AA and 132 AA and their DNA starts with ATG, so they may include the leader peptide; The limits are printed only as drawings and no residues were cut
B2: 2B10C1 (antibody, V domains shown)
VH: QVQLQQPGAEVVRPGASVKVSCKASGYTVSSYWMSWVKQRPEQGLEWIGRIDPYDSETHYNQKFKDKAILTVDKSSSTAYMQLSSLTSEDSAVYYCARTAASFDYWGQGTTLTVSS
VL: DVVMTQTPLSLPVSLGDQASISCRSSQSLVHSNGNSYLHWYLQKPGQSPKLLIYKVSNRFSGVPDRFSGSGSGTDFTLNISRVEAEDLGVYFCSQSTHVPFTFGSGTKLEIK
notes: Mouse hybridoma mAb, IgG1; The entries are 135 AA and 131 AA and their DNA starts with ATG, so they may include the leader peptide; The limits are printed only as drawings and no residues were cut; also called 2810C1

Columns and labels:
Fba peptide = biological target: T1, Fba peptide; assay: specificity listed in table; hybridomas screened by anti-peptide ELISA
Met6 peptide = biological target: T2, Met6 peptide; assay: as above

| Binder | binding result (Fba peptide) | binding result (Met6 peptide) |
| --- | --- | --- |
| B1 | binds | – |
| B2 | – | binds |

Reference: patent publication US20200222518A1 (BOARD OF SUPERVISORS OF LOUISIANA STATE UNIVERSITY AND …, published 2020)
